Laboratory results from PMC11699347, “Heme regulates protein interactions and phosphorylation of BACH2 intrinsically disordered region in humoral response” (iScience, 2024).
Blank lines part the entries; values can stand above or below the binder they belong to.

Columns and labels:
His-FLAG-TBK1 = biological target: T1, His-FLAG-TBK1 (mouse, UniProt Q9WUN2 1-729); experiment: pull-down; GST fusion on Glutathione Sepharose beads with purified His-FLAG-TBK1 or His-FLAG-DNMT1, with or without heme, 2 h at 4°C; 20 mM HEPES pH 7.0, 50 mM NaCl, 2 mM TCEP; immunoblot; conditions: both partners purified
T1 construct: An HRV 3C protease site follows the N-terminal FLAG-8xHis tag; also called FLAG-His-TBK1; recombinant mouse His-FLAG-TBK1; source: Sf9 insect cells (baculovirus), purified (FLAG-M2 agarose, G-25 spin column); not shown: FLAG, N-terminal, kept; 8xHis, N-terminal, kept
T1 sequence (looked up): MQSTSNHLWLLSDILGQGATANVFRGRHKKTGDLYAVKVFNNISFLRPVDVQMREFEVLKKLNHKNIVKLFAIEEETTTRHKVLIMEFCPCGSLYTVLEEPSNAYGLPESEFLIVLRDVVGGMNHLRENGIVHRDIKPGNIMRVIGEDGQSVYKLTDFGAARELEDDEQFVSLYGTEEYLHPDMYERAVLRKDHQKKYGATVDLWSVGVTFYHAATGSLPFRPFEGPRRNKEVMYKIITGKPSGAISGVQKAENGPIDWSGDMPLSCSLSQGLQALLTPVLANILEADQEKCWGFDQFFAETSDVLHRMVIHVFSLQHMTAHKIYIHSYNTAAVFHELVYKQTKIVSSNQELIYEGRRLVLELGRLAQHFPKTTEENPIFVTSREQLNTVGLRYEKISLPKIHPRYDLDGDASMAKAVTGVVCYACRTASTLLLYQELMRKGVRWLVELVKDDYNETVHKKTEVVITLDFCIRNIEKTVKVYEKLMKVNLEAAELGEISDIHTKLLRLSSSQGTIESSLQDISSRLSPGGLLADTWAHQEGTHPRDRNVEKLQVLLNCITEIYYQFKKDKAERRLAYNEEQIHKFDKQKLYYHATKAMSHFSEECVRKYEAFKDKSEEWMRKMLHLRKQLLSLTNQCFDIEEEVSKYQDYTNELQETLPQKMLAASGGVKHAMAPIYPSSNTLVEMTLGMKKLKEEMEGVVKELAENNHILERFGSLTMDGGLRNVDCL

GST-BACH2_331-839 = GST-BACH2_331-839 (UniProt P97303 331-839); experiment: EMSA; MafK presence not stated in the material; 32P-labeled ds probes, 30 min incubation, 4% polyacrylamide gel; buffer, salt, pH and temperature not stated; conditions: protein: recombinant; tags: N-terminal GST; label: 32P 5' end (PNK)

binding result (His-FLAG-TBK1): binds
B1: GST-BACH2-381-481 (domain or fragment, mouse, UniProt P97303 381-481, looked up)
chain: KTDYTPLAGNYGQPHVGQKDVSNFAMGSPLRGPGPETLCKQEGELDRRSVIFSASACDQPNTPVHSYSAVSNLDKDLSEPVPKSLWVGAGQSLPSSQAYSH
notes: made by PCR from pGEX6P1-BACH2-IDR; Cloned into pGEX-6P-1; source: E. coli KRX, purified (Glutathione Sepharose 4B)

B2: Slc48a1-MARE (dsDNA)
DNA 1: GCACTCCACTTCTGACTCAGCATTTTGCAGCC
DNA 2: GGCTGCAAAATGCTGAGTCAGAAGTGGAGTGC
binding result (GST-BACH2_331-839): binds

binding result (His-FLAG-TBK1): binds
B3: GST-BACH2-IDR (domain or fragment, mouse, UniProt P97303 331-520, looked up)
chain: SRSVSSPSCLRSLFGITKGVESTGLPSTSQQPLVRSSACPFNKGISQGDLKTDYTPLAGNYGQPHVGQKDVSNFAMGSPLRGPGPETLCKQEGELDRRSVIFSASACDQPNTPVHSYSAVSNLDKDLSEPVPKSLWVGAGQSLPSSQAYSHSGLMADHLPGRIRPNTSCPVPIKVCPRSPPLETRTRTSS
notes: BACH2, mouse, intrinsically disordered region, amino acid region 331-520; Plasmid pGEX6P1-BACH2-IDR; also called recombinant BACH2-331-520 with GST kept; source: E. coli KRX, purified (Glutathione Sepharose 4B)
